Experimental data published in the supplement of paper PMC10065799, “High-throughput profiling of sequence recognition by tyrosine kinases and SH2 domains using bacterial peptide display” (eLife, 2023).

Assays:
c-Src SH2 = test: SH2 binding enrichment of the phosphorylated peptide, bacterial display (enrichment ratio); higher = better substrate or ligand; peptides without Tyr show the background
SHP2-C SH2 = test: as above
Grb2 SH2 = Grb2 SH2 (UniProt P62993); test: as above
c-Src = test: phosphorylation enrichment, bacterial display (enrichment ratio); higher = better substrate or ligand; peptides without Tyr show the background
EPHB2 = EPHB2 (UniProt P29323); test: as above
FGFR1 = FGFR1 (UniProt P11362); test: as above
Chain of FGFR1 (P11362 whole entry, looked up): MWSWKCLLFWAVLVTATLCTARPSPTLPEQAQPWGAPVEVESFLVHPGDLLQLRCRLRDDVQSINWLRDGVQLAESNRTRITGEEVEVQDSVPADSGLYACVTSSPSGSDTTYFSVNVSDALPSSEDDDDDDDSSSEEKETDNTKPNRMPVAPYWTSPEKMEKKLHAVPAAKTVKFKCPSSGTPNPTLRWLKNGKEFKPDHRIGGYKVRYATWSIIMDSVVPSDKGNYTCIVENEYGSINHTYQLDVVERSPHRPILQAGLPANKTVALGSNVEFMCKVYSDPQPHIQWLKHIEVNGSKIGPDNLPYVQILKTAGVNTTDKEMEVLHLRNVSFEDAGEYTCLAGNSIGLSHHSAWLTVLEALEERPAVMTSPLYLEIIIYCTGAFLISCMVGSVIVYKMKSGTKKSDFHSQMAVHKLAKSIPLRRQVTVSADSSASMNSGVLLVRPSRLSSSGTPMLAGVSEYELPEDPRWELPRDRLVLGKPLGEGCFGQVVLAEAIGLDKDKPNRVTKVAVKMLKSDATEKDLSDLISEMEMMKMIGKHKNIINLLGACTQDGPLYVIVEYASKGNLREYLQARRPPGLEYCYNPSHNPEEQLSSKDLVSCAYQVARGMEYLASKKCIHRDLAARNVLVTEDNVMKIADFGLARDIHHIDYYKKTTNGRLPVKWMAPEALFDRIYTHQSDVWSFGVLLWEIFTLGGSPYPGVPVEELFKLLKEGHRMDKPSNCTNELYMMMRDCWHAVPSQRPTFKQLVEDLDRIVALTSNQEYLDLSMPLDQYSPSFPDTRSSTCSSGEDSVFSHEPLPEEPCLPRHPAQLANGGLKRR

Fes = Fes (UniProt P07332); test: as above
Chain of Fes (P07332 whole entry, looked up): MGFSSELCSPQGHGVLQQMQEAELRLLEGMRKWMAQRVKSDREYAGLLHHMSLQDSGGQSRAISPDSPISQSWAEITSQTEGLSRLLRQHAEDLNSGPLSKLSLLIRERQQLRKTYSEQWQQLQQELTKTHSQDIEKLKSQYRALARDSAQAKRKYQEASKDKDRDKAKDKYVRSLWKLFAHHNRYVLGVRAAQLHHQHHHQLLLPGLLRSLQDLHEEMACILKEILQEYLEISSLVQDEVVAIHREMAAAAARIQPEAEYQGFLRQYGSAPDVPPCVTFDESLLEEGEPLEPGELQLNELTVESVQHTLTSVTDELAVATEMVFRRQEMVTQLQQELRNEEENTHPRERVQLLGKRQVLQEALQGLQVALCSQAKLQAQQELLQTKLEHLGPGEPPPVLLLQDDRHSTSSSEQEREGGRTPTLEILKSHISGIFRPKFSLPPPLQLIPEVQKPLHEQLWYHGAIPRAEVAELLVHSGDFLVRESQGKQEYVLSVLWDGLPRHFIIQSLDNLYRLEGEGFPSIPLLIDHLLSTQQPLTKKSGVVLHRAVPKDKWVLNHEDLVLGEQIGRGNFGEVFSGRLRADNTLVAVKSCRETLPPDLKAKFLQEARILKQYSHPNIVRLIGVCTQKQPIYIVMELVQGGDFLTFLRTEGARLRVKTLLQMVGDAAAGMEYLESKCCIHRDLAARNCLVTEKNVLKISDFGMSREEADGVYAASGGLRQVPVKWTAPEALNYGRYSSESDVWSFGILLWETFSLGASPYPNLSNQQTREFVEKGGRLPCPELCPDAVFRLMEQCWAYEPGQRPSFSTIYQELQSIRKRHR

Fer (mouse) = test: as above
c-Abl (mouse) = test: as above
FGFR3 = FGFR3 (UniProt P22607); test: as above
Chain of FGFR3 (P22607 whole entry, looked up): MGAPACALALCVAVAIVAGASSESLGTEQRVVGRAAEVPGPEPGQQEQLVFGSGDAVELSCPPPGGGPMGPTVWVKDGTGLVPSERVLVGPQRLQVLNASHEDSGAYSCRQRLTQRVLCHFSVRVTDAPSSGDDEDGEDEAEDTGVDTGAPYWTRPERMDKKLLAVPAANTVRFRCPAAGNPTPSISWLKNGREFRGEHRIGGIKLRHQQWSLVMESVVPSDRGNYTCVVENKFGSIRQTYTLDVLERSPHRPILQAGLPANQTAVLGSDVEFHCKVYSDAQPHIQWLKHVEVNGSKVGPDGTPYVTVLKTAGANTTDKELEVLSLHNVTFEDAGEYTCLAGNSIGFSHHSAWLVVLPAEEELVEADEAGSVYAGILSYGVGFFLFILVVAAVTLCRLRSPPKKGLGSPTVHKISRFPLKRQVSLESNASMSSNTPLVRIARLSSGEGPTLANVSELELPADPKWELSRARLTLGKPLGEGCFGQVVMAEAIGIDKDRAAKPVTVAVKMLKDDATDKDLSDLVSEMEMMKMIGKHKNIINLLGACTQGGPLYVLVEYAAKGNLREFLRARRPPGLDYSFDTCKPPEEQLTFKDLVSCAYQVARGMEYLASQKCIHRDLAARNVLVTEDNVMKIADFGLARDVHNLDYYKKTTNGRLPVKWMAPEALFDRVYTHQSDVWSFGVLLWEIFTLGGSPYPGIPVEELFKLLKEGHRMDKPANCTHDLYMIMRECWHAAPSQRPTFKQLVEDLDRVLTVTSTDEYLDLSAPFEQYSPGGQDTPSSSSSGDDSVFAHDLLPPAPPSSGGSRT

Jak2 = Jak2 (UniProt O60674); test: as above
Chain of Jak2 (O60674 whole entry, looked up): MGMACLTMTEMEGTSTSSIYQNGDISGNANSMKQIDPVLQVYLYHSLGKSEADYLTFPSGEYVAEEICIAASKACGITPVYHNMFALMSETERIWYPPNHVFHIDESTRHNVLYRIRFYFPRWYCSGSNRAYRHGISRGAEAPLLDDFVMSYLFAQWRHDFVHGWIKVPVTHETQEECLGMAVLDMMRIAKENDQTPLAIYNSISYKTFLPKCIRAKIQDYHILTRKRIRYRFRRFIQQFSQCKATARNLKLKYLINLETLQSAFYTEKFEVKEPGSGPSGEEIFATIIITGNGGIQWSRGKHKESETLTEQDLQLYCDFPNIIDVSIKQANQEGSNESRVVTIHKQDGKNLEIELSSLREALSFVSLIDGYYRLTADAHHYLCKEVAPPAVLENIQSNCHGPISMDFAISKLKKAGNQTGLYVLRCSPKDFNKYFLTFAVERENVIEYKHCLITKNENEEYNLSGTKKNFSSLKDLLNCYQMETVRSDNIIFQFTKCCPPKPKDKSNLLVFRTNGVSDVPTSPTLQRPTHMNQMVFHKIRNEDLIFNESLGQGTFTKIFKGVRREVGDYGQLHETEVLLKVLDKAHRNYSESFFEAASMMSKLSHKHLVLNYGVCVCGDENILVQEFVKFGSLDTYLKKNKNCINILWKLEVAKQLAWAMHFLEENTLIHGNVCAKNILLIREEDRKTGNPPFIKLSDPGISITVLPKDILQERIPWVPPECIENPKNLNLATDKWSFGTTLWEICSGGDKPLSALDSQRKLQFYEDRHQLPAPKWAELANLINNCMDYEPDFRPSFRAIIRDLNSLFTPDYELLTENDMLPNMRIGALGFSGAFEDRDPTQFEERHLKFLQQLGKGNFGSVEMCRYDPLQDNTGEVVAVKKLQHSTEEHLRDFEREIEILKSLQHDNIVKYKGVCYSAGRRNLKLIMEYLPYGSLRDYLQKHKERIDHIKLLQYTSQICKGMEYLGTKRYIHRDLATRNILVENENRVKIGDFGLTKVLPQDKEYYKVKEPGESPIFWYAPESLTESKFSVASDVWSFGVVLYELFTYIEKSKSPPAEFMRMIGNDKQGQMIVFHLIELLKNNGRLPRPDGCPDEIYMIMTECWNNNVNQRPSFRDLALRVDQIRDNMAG

EPHB1 = EPHB1 (UniProt P54762); test: as above
Chain of EPHB1 (P54762 whole entry, looked up): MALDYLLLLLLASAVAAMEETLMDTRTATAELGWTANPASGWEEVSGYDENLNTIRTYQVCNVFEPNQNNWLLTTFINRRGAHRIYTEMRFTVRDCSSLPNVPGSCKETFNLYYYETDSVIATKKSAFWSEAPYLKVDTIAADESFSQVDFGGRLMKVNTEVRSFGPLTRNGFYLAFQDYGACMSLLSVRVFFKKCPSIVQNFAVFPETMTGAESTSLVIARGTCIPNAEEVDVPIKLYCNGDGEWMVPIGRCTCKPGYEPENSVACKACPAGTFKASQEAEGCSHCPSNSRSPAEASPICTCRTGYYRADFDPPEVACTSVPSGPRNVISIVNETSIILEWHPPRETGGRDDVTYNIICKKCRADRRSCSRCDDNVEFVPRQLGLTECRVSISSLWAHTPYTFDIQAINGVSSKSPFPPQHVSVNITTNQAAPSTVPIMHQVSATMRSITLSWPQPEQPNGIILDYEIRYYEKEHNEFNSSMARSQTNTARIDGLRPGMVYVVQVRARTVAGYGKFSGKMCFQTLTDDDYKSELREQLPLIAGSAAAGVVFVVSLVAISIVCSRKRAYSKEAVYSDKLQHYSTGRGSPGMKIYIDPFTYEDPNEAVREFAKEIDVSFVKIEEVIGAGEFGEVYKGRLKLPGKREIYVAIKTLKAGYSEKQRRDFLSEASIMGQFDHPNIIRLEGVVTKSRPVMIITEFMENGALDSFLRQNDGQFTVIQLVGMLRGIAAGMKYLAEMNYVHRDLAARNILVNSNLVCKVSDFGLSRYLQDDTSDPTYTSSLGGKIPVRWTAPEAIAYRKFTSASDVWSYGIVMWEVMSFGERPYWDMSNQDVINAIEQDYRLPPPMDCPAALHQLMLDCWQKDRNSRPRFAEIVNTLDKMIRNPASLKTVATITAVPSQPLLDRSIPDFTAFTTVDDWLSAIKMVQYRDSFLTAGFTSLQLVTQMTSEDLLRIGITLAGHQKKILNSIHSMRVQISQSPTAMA

MERTK = MERTK (UniProt Q12866); test: as above
AncSZ = test: as above
Hck = Hck (UniProt P08631); test: as above
Fyn = Fyn (UniProt P06241); test: as above
Chain of Fyn (P06241 whole entry, looked up, the tested form may be a part): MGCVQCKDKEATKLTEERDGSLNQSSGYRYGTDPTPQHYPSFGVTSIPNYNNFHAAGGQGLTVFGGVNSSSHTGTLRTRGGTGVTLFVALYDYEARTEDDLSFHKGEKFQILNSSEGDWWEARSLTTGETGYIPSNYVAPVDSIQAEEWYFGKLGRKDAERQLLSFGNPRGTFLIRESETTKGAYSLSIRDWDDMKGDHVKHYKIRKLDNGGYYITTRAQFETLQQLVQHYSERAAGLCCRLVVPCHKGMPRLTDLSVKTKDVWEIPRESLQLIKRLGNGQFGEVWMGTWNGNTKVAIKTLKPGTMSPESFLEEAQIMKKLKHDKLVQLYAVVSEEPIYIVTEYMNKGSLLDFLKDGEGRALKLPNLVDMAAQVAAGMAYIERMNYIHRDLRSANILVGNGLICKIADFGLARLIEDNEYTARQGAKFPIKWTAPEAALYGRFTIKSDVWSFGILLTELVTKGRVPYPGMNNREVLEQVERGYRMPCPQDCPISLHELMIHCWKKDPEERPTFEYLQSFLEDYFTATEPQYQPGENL
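For SH2 binding enrichment of the phosphorylated peptide, bacterial display in this document: peptide library displayed on the E. coli surface as eCPX fusions, selected cells deep-sequenced, score is each peptide's frequency after selection divided by its frequency in the input.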
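For phosphorylation enrichment, bacterial display in this document: 11-residue human phosphosite peptides and single-mutation variants displayed on the E. coli surface, counted by deep sequencing, each peptide's frequency after selection divided by its frequency in the unselected input library; frequency after pTyr selection over input frequency; kinase dosed for 20-30% of maximal phosphorylation in three min.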

SH2 binding enrichment (c-Src SH2)	SH2 binding enrichment (SHP2-C SH2)	SH2 binding enrichment (Grb2 SH2)	Sequence	phosphorylation enrichment (c-Src)	phosphorylation enrichment (EPHB2)	phosphorylation enrichment (FGFR1)	phosphorylation enrichment (Fes)	phosphorylation enrichment (Fer (mouse))	phosphorylation enrichment (c-Abl (mouse))	phosphorylation enrichment (FGFR3)	phosphorylation enrichment (Jak2)	phosphorylation enrichment (EPHB1)	phosphorylation enrichment (MERTK)	phosphorylation enrichment (AncSZ)	phosphorylation enrichment (Hck)	phosphorylation enrichment (Fyn)
0.459	0.724	0.748	FQNGMYGLHQD [SGSH_Y89_H84Y_YF]	0.828	0.543	0.462	0.709	0.454	0.552	0.555	0.733	0.437	0.456	0.665	0.598	0.599
1.37	0.543	0.699	PPPPAYDDMAQ [TNK2_Y635_V638M]	0.526	0.632	0.492	1.04	0.551	0.597	0.762	1.14	0.441	0.675	1.25	0.647	0.544
0.528	0.83	0.821	EILLSYPRTGF [TGM1_Y365_L366P_YF]	0.356	0.533	0.488	0.935	0.397	0.515	0.555	0.872	0.562	0.411	0.695	0.534	0.541

The next lines start with the sequence.

Sequence	SH2 binding enrichment (c-Src SH2)	SH2 binding enrichment (SHP2-C SH2)	SH2 binding enrichment (Grb2 SH2)	phosphorylation enrichment (c-Src)	phosphorylation enrichment (EPHB2)	phosphorylation enrichment (FGFR1)	phosphorylation enrichment (Fes)	phosphorylation enrichment (Fer (mouse))	phosphorylation enrichment (c-Abl (mouse))	phosphorylation enrichment (FGFR3)	phosphorylation enrichment (Jak2)	phosphorylation enrichment (EPHB1)	phosphorylation enrichment (MERTK)	phosphorylation enrichment (AncSZ)	phosphorylation enrichment (Hck)	phosphorylation enrichment (Fyn)
LQEQNYLAVDS [FAM114A1_Y115]	0.644	0.53	0.725	0.673	2.83	3.67	2.5	4.67	0.817	3.19	1.39	6.07	1.17	2.1	0.946	1.47
RIFDFYSARKA [STOX1_Y858_YF]	0.529	0.538	0.75	0.645	0.847	0.82	1.59	0.72	1.04	0.979	0.729	1.1	0.644	1.21	1.33	0.849
AGIENYTSRFG [NKD2_Y256]	0.485	0.625	0.767	0.426	0.386	0.434	0.719	0.383	0.585	0.529	0.465	0.817	0.418	0.569	0.329	0.421
HDRGNYVQLNM [RECQL4_Y353_R355Q]	1.95	1.18	0.986	0.442	3.46	1.99	1.1	0.674	0.552	1.35	0.55	8.72	0.686	0.744	0.508	0.493
TESNNYIYKTL [FAM83B_Y637]	0.523	1.65	0.738	1.28	0.44	0.625	0.696	0.512	0.559	0.64	0.63	0.483	0.535	0.729	0.99	1.31
